Reference: US20060148057A1, “Thioredoxin mutants and uses thereof” (priority 2002, published 2006)

T1: ASK1 (Homo sapiens, UniProt Q99683)
T1 construct: wild type ASK1 (ASK1-WT, aa 1-1375); expressed in transfected cells; host or cells: BAEC
T1 sequence (Q99683 1-1374): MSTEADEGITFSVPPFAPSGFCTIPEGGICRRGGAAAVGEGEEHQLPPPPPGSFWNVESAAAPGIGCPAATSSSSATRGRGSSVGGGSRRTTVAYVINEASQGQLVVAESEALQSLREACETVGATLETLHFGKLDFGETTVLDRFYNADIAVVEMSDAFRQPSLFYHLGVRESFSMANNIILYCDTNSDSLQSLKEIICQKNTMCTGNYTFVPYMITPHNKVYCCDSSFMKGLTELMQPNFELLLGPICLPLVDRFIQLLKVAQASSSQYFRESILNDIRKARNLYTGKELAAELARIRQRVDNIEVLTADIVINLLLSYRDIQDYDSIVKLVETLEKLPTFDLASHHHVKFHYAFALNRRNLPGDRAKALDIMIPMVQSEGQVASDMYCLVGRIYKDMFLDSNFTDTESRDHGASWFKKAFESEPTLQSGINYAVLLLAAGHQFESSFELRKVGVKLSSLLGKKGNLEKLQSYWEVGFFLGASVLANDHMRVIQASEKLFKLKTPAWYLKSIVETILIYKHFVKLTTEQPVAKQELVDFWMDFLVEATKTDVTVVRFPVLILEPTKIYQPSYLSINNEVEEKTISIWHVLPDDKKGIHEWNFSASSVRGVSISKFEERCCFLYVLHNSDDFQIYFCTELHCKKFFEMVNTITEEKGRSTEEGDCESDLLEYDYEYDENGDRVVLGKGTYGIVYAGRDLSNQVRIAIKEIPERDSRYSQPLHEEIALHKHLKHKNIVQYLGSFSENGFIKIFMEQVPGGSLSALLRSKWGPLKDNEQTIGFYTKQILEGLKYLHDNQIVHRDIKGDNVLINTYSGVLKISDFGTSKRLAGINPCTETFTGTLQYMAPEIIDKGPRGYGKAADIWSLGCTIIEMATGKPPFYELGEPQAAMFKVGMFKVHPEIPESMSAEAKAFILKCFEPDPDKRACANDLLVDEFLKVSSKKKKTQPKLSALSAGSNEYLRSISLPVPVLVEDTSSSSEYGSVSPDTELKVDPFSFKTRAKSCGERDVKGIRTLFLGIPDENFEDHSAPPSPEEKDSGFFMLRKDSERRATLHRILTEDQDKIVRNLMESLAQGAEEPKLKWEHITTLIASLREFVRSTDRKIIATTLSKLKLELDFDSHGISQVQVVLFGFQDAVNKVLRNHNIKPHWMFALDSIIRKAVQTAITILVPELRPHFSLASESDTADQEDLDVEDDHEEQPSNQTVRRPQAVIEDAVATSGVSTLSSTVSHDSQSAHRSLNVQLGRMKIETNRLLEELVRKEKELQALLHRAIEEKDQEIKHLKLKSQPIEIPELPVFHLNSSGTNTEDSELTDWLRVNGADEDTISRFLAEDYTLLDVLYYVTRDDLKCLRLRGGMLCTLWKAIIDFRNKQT

B1: thioredoxin (protein)
chain: MVKQIESKTAFQEALDAAGDKLVVVDFSATWCGPCKMIKPFFHSLSEKYSNVIFLEVDVDDCQDVASECEVKCMPTFQFFKKGQKVGEFSGANKEKLEATINELV
modifications: Flag tag or GST fusion
notes: Flag-tagged or GST fusion
B2: Trx-C35S: C35S single mutant of Trx at the catalytic site, SEQ ID NO:3 (protein)
chain: MVKQIESKTAFQEALDAAGDKLVVVDFSATWCGPSKMIKPFFHSLSEKYSNVIFLEVDVDDCQDVASECEVKCMPTFQFFKKGQKVGEFSGANKEKLEATINELV
B3: Trx-C32S: C32S single mutant of Trx at the catalytic site, SEQ ID NO:2 (protein)
chain: MVKQIESKTAFQEALDAAGDKLVVVDFSATWSGPCKMIKPFFHSLSEKYSNVIFLEVDVDDCQDVASECEVKCMPTFQFFKKGQKVGEFSGANKEKLEATINELV

What was measured:
[1] = test system: ASK1; assay: Association of Trx with ASK1 in vivo in BAEC (co-immunoprecipitation); format: binding, Bovine; conditions: for association of Flag-Trx with HA-ASK1 after TNF treatment: TNF 10 ng/ml for 15 min; for binding of Flag-Trx to HA-ASK1: resting EC, co-immunoprecipitation
Procedure: Immunoprecipitation and immunoblotting EC after various treatments were washed twice with cold PBS and lysed in 1.5 ml of cold lysis buffer (50 mM Tris-HC, pH 7.6, 150 mM NaCl, 0.1% Triton X-100, 0.75% Brij 96, 10 μg/ml aprotinin, 10 μg/ml leupeptin, 2 mM PMSF, 1 mM EDTA) for 20 min on ice. Protein concentrations were determined with a Bio-Rad kit. For immunoprecipitation to analyze protein interaction in vivo, 400 μg of cell lysate supematant were incubated with 5 μg of the first protein-specific antiserum (e.g. anti-Trx from Medical & Biological Laboratory) for 2 h with 50 μl of GammaBind plus Sepharose. Immune complexes were collected after each immunoprecipitation by centrifugation at 14,000× g for 10 min followed by 4 washes with lysis buffer. The immune complexes were subjected to Western blot with the second protein (e.g., ASK1)-specific antibody (Santa Cruz Biotech, Santa Cruz, Calif.). The chemiluminescence was detected using an ECL kit according to the instructions of the manufacturer (Amersham Life Science, Arlington Heights, Ill.). For Flag-tagged and HA-tagged proteins, anti-Flag M2 antibody (Sigma) and anti-HA antibody (Roche Diagnostics) were used, respectively.
TNF dissociates wild type Trx but not Trx-C32S or Trx-C35Sfroin ASK1 in vivo. Trx-C32S and Trx-C35S were examiner to determine whether they constitutively bind to ASK1 in vivo. Regulation of ASK1 by Trx was first examined to determine if such regulation is ROS-dependent in EC. BAEC were either untreated or treated with N-acetyl-cysteine (Nac, 1 mM) or vehicle for 60 min prior to TNF-α (10 ng/ml) stimulation for 15 min. TNF-induced ASK1 activation was measured by an in vitro kinase assay using GST-MKK4 (JNKK1) fusion protein as a substrate. TNF activated ASK1 in EC (FIG. 5A). […] Association of ASK1 with Trx was easily detected in untreated EC cells (FIG. 5B, Ctrl). […] In contrast, Nac pretreatment prevented TNF-induced dissociation of ASK1 from Trx. Similar results were obtained in human EC (HUVEC).
To examine association of Trx mutants with ASK1 in vivo, the Flag-tagged Trx construct (WT, CS, C32S or C35S) was co-transfected with HA-ASK1 into BAEC and the interaction of these Trx proteins with ASK1 were examined by co-immunoprecipitation assay. As expected, Trx-WT, Trx-C32S and Trx-Trx-C35S (but not Trx-CS) bound to ASK1 in resting EC (FIG. 5C).

[2] = biological target: T1, ASK1; assay: GST-Trx pull-down assay; format: binding; conditions: for ASK1 bound to GST-Trx: in the presence of 1 mM DTT; for association of GST-Trx with ASK1: in the presence of 1 mM H2O2
Procedure: GST-Trx pull-down assay: GST fusion protein preparation and GST pull-down assay were performed as described previously. […] Briefly, GST-Trx fusion proteins expressed in Escherichia coli XL-1 blue were affinity purified on glutathione-Sepharose beads (Pharmacia). 400 μg of cell lysates expressing HA-tagged ASK1 were incubated with 10 μg of GST-Trx bound to glutathione-Sepharose in the lysis buffer containing either 1 mM DTT or 1 mM H2O2. The beads were washed 4 times with the lysis buffer before the addition of boiling Laemmli sample buffer. Bound ASK1 proteins were resolved on SDS-PAGE and detected by Western blot with anti-HA.
Hydrogen peroxide dissociates wild type Trx but not Trx-C32S or Trx-C35S from ASK1 in vitro. Association of ASK1 with various Trx proteins - Trx-WT, Trx-CS, Trx-C32S or Trx-C35S in the presence of 1 mM DTT or H202 in an in vitro GST pull-down assay. Bacteria-expressed GST-Trx proteins were purified and protein concentrations were determined by SDS-PAGE (FIG. 2A). […] ASK1 bound to GST-Trx was determined by Western blot with anti-HA.

Row | Molecule | association of Flag-Trx with HA-ASK1 after TNF treatment [1] | binding of Flag-Trx to HA-ASK1 [1] | ASK1 bound to GST-Trx [2] | association of GST-Trx with ASK1 [2]
1 | B1 | completely dissociated | bound to ASK1 | bound | disrupted the association
2 | B2 | not reduced | bound to ASK1 | bound | retained their associations with ASK1
3 | B3 | not reduced | bound to ASK1 | bound | retained their associations with ASK1
